This is an account of results in patent publication US20180094059A1 (UNIVERSITAT STUTTGART, published 2018).

What all share (assay): cell-based or functional assay
Test [1] addresses fibroblast activation protein (FAP) on transfected HT1080 cells (UniProt Q12884 1-760, limits assumed).
Test [2] has as its target T1, EGFR on EGFR-positive tumor cell lines (UniProt P00533 25-1210, limits assumed).
For test [3], the target named is T1, EGFR on EGFR-positive tumor cell lines. The source holds these as a separate data set.

Numbering of substitutions follows the chain as printed. Like-named read-outs stand apart in the source and are kept apart here.

B1: Db anti-FAP-Glyco-scTRAIL3-FAVSGAA (other)
chain: LEASDYKDDDDKGTGQVQLVQSGAEVKKPGASVKVSCKASGYTFTENIIHWVRQAPGQGLEWMGWFHPGSGSIKYNEKFKDRVTMTADTSTSTVYMELSSLRSEDTAVYYCARHGGTGRGAMDYWGQGTLVTVSSGGGGSDIQMTQSPSSLSASVGDRVTITCRASKSVSTSAYSYMHWYQQKPGKAPKLLIYLASNLESGVPSRFSGSGSGTDFTLTISSLQPEDFATYYCQHSRELPYTFGQGTKLEIKRAAAGNGTSNGTSEFGGAAAHITGTRGRSNTLSSPNSKNEKALGRKINSWESSRSGHSFLSNLHLRNGELVIHEKGFYYIYSQTYFRFQEEIKENTKNDKQMVQYIYKYTSYPDPILLMKSARNSCWSKDAEYGLYSIYQGGIFELKENDRIFVSVTNEHLIDMDHEASFFGAFAVSGAAAHITGTRGRSNTLSSPNSKNEKALGRKINSWESSRSGHSFLSNLHLRNGELVIHEKGFYYIYSQTYFRFQEEIKENTKNDKQMVQYIYKYTSYPDPILLMKSARNSCWSKDAEYGLYSIYQGGIFELKENDRIFVSVTNEHLIDMDHEASFFGAFAVSGAAAHITGTRGRSNTLSSPNSKNEKALGRKINSWESSRSGHSFLSNLHLRNGELVIHEKGFYYIYSQTYFRFQEEIKENTKNDKQMVQYIYKYTSYPDPILLMKSARNSCWSKDAEYGLYSIYQGGIFELKENDRIFVSVTNEHLIDMDHEASFFGAFAVS
modifications: 16 aa peptide linker with two N-glycosylation sites
Regarding B1, in test [1], the “EC50 of cytotoxicity on HT1080 FAP+ cells, competing with excess anti-FAP IgG” value was 0.04 nM; the “EC50 of cytotoxicity on HT1080 FAP+ cells, with bortezomib, competing conditions” value came to 0.0041 nM; the “EC50 of cytotoxicity on HT1080 FAP+ cells, with bortezomib, non-competing conditions” value was 0.002 nM; the “EC50 of cytotoxicity on HT1080 FAP+ cells, without αFAP IgG” value is 0.029 nM.

B2: scFvhu225-EHD2-scTRAIL3-FLVGGGPQRVA (other)
chain: DYKDDDDKGGGGSGTEVQLVESGGGLVQPGGSLRLSCAASGFSLTNYGVHWVRQAPGKGLEWLGVIWSGGNTDYNTPFTSRFTISRDNSKNTLYLQMNSLRAEDTAVYYCARALTYYDYEFAYWGQGTTVTVSSGGGGSGGGGSGGGGSDIQLTQSPSFLSASVGDRVTITCRASQSIGTNIHWYQQKPGKAPKLLIKYASESISGVPSRFSGSGSGTEFTLTISSLQPEDFATYYCQQNNNWPTTFGAGTKLEIKRAAAGGSGGDFTPPTVKILQSSCDGGGHFPPTIQLLCLVSGYTPGTINITWLEDGQVMDVDLSTASTTQEGELASTQSELTLSQKHWLSDRTYTCQVTYQGHTFEDSTKKCADSNGGSGGASSGGGPQRVAAHITGTRGRSNTLSSPNSKNEKALGRKINSWESSRSGHSFLSNLHLRNGELVIHEKGFYYIYSQTYFRFQEEIKENTKNDKQMVQYIYKYTSYPDPILLMKSARNSCWSKDAEYGLYSIYQGGIFELKENDRIFVSVTNEHLIDMDHEASFFGAFLVGGGPQRVAAHITGTRGRSNTLSSPNSKNEKALGRKINSWESSRSGHSFLSNLHLRNGELVIHEKGFYYIYSQTYFRFQEEIKENTKNDKQMVQYIYKYTSYPDPILLMKSARNSCWSKDAEYGLYSIYQGGIFELKENDRIFVSVTNEHLIDMDHEASFFGAFLVGGGPQRVAAHITGTRGRSNTLSSPNSKNEKALGRKINSWESSRSGHSFLSNLHLRNGELVIHEKGFYYIYSQTYFRFQEEIKENTKNDKQMVQYIYKYTSYPDPILLMKSARNSCWSKDAEYGLYSIYQGGIFELKENDRIFVSVTNEHLIDMDHEASFFGAFLVG
With B2, in test [2], the “EC50 of cell death induction, Colo205, with Bortezomib” value amounted to 0.0018 nM; the “EC50 of cell death induction, Colo205, without bortezomib” value (“EC50 … Colo205, without bortezomib” below) was 0.0119 nM; the “EC50 of cell death induction, Colo205 in presence of Cetuximab, with bortezomib” value (“EC50 … of Cetuximab, with bortezomib” below) came to 0.0067 nM; the “EC50 of cell death induction, Colo205 in presence of Cetuximab, without bortezomib” value (from here on “EC50 … of Cetuximab, without bortezomib”) was found to be 0.0693 nM.

B3: Dbhu225-scTRAIL3-FLVGGGPQRVA (other, not shown: small tags and cut ends)
chain: DYKDDDDKGGGGSGTEVQLVESGGGLVQPGGSLRLSCAASGFSLTNYGVHWVRQAPGKGLEWLGVIWSGGNTDYNTPFTSRFTISRDNSKNTLYLQMNSLRAEDTAVYYCARALTYYDYEFAYWGQGTTVTVSSGGGGSDIQLTQSPSFLSASVGDRVTITCRASQSIGTNIHWYQQKPGKAPKLLIKYASESISGVPSRFSGSGSGTEFTLTISSLQPEDFATYYCQQNNNWPTTFGAGTKLEIKRAAAGGSGGGPQRVAAHITGTRGRSNTLSSPNSKNEKALGRKINSWESSRSGHSFLSNLHLRNGELVIHEKGFYYIYSQTYFRFQEEIKENTKNDKQMVQYIYKYTSYPDPILLMKSARNSCWSKDAEYGLYSIYQGGIFELKENDRIFVSVTNEHLIDMDHEASFFGAFLVGGGPQRVAAHITGTRGRSNTLSSPNSKNEKALGRKINSWESSRSGHSFLSNLHLRNGELVIHEKGFYYIYSQTYFRFQEEIKENTKNDKQMVQYIYKYTSYPDPILLMKSARNSCWSKDAEYGLYSIYQGGIFELKENDRIFVSVTNEHLIDMDHEASFFGAFLVGGGPQRVAAHITGTRGRSNTLSSPNSKNEKALGRKINSWESSRSGHSFLSNLHLRNGELVIHEKGFYYIYSQTYFRFQEEIKENTKNDKQMVQYIYKYTSYPDPILLMKSARNSCWSKDAEYGLYSIYQGGIFELKENDRIFVSVTNEHLIDMDHEASFFGAFLVG
For B3, in test [2], the “EC50 of cell death induction, Colo205, with Bortezomib” value is 0.0038 nM; the “EC50 … Colo205, without bortezomib” value came to 0.041 nM; the “EC50 … of Cetuximab, with bortezomib” value amounted to 0.0138 nM; the “EC50 … of Cetuximab, without bortezomib” value amounted to 0.102 nM.

B4: dsDbhu225-scTRAIL3-FLVGGGPQRVA (other, not shown: small tags and cut ends)
chain: B3 chain with G59C, A239C
As for B4, in test [2], the “EC50 of cell death induction, Colo205, with Bortezomib” value was found to be 0.0025 nM; the “EC50 … Colo205, without bortezomib” value amounted to 0.0212 nM; the “EC50 … of Cetuximab, with bortezomib” value came to 0.0072 nM; the “EC50 … of Cetuximab, without bortezomib” value turned out to be 0.0423 nM.

B5: Db8-Glyco-scTRAIL3-FAVSGAA (other)
chain: LEASDYKDDDDKGAEVQLVESGGGLVQPGGSLRLSCAASGFSLTNYGVHWVRQAPGKGLEWLGVIWSGGNTDYNTPFTSRFTISRDNSKNTLYLQMNSLRAEDTAVYYCARALTYYDYEFAYWGQGTTVTVSSGGGGSGGGDIQLTQSPSFLSASVGDRVTITCRASQSIGTNIHWYQQKPGKAPKLLIKYASESISGVPSRFSGSGSGTEFTLTISSLQPEDFATYYCQQNNNWPTTFGAGTKLEIKRAAAGNGTSNGTSEFGGAAAHITGTRGRSNTLSSPNSKNEKALGRKINSWESSRSGHSFLSNLHLRNGELVIHEKGFYYIYSQTYFRFQEEIKENTKNDKQMVQYIYKYTSYPDPILLMKSARNSCWSKDAEYGLYSIYQGGIFELKENDRIFVSVTNEHLIDMDHEASFFGAFAVSGAAAHITGTRGRSNTLSSPNSKNEKALGRKINSWESSRSGHSFLSNLHLRNGELVIHEKGFYYIYSQTYFRFQEEIKENTKNDKQMVQYIYKYTSYPDPILLMKSARNSCWSKDAEYGLYSIYQGGIFELKENDRIFVSVTNEHLIDMDHEASFFGAFAVSGAAAHITGTRGRSNTLSSPNSKNEKALGRKINSWESSRSGHSFLSNLHLRNGELVIHEKGFYYIYSQTYFRFQEEIKENTKNDKQMVQYIYKYTSYPDPILLMKSARNSCWSKDAEYGLYSIYQGGIFELKENDRIFVSVTNEHLIDMDHEASFFGAFAVS
modifications: glycosylated connecting peptide
For B5, in test [3], the “EC50 of cell death induction, Colo205, with Bortezomib” value is 0.026 nM; the “EC50 of cell death induction, Colo205, with Bortezomib + Cetuximab” value (from here on “EC50 … Colo205, with Bortezomib + Cetuximab”) amounted to 0.061 nM; the “EC50 of cell death induction, HCT116, with Bortezomib” value is 0.051 nM; the “EC50 of cell death induction, HCT116, with Bortezomib + Cetuximab” value (from here on “EC50 … HCT116, with Bortezomib + Cetuximab”) is 0.3 nM. Besides, in test [3], the “EC50 of cell death induction, HT1080, with Bortezomib” value amounted to 0.0009 nM and the “EC50 of cell death induction, HT1080, with Bortezomib + Cetuximab” value (“EC50 … HT1080, with Bortezomib + Cetuximab” for short) was 0.007 nM.

B6: Db-Glyco-scTRAIL3-FAVSGAA (other)
chain: LEASDYKDDDDKGAEVQLVESGGGLVQPGGSLRLSCAASGFSLTNYGVHWVRQAPGKGLEWLGVIWSGGNTDYNTPFTSRFTISRDNSKNTLYLQMNSLRAEDTAVYYCARALTYYDYEFAYWGQGTTVTVSSGGGGSDIQLTQSPSFLSASVGDRVTITCRASQSIGTNIHWYQQKPGKAPKLLIKYASESISGVPSRFSGSGSGTEFTLTISSLQPEDFATYYCQQNNNWPTTFGAGTKLEIKRAAAGNGTSNGTSEFGGAAAHITGTRGRSNTLSSPNSKNEKALGRKINSWESSRSGHSFLSNLHLRNGELVIHEKGFYYIYSQTYFRFQEEIKENTKNDKQMVQYIYKYTSYPDPILLMKSARNSCWSKDAEYGLYSIYQGGIFELKENDRIFVSVTNEHLIDMDHEASFFGAFAVSGAAAHITGTRGRSNTLSSPNSKNEKALGRKINSWESSRSGHSFLSNLHLRNGELVIHEKGFYYIYSQTYFRFQEEIKENTKNDKQMVQYIYKYTSYPDPILLMKSARNSCWSKDAEYGLYSIYQGGIFELKENDRIFVSVTNEHLIDMDHEASFFGAFAVSGAAAHITGTRGRSNTLSSPNSKNEKALGRKINSWESSRSGHSFLSNLHLRNGELVIHEKGFYYIYSQTYFRFQEEIKENTKNDKQMVQYIYKYTSYPDPILLMKSARNSCWSKDAEYGLYSIYQGGIFELKENDRIFVSVTNEHLIDMDHEASFFGAFAVS
modifications: two N-glycosylation sites in the peptide AAAGNGTSNGTSEFGG, shown to be glycosylated
Take B6: in test [3], the “EC50 of cell death induction, Colo205, with Bortezomib” value stood at 0.033 nM; the “EC50 … Colo205, with Bortezomib + Cetuximab” value turned out to be 0.074 nM; the “EC50 of cell death induction, HCT116, with Bortezomib” value was 0.066 nM; the “EC50 … HCT116, with Bortezomib + Cetuximab” value amounted to 0.45 nM. Besides, in test [3], the “EC50 of cell death induction, HT1080, with Bortezomib” value came to 0.001 nM and the “EC50 … HT1080, with Bortezomib + Cetuximab” value was determined as 0.01 nM.

B7: Db-Glyco-scTRAIL3-FAVSGIA (other)
chain: B6 chain with A263I, A424I, A585I
modifications: glycosylated connecting peptide
For B7, in test [3], the “EC50 of cell death induction, Colo205, with Bortezomib” value amounted to 0.019 nM; the “EC50 … Colo205, with Bortezomib + Cetuximab” value came out at 0.032 nM; the “EC50 of cell death induction, HCT116, with Bortezomib” value was found to be 0.043 nM; the “EC50 … HCT116, with Bortezomib + Cetuximab” value was 0.161 nM. In addition, in test [3], the “EC50 of cell death induction, HT1080, with Bortezomib” value came out at 0.0006 nM and the “EC50 … HT1080, with Bortezomib + Cetuximab” value came to 0.005 nM.
